Patent US20030013169, “Transcription factor E2F DNA-binding domain inhibitor peptides and their use” (published 2003)

Target: E2F1/DP1 heterodimer (Homo sapiens, UniProt Q01094;Q14186 Q01094:64-301,Q14186:85-249)
Assay: EMSA; binding inhibited by peptides SEQ 2, 4, 5 with IC50 50-100 uM; about 100-fold lower for MAP-branched SEQ 2; room temperature
Conditions: tags: His-E2F1 (pET28b); GST-DP1; label: 32P fill-in
Description: Purified E2F1 N1-His (64-301) and DP1 N2-GST (84-249) were incubated at 10 μg/ml in a buffer containing 10 mM HEPES, […], 1 mM EDTA, […], 33 mg/ml BSA and 0.1 μg of sonicated salmon sperm for 10 minutes on ice. ³²P-labelled probe was added and the reaction mixture was incubated at room temperature for 20 minutes. Probes were labelled by filling-in 5′ overhanging ends of 4-7 bases. Samples were run on 4% non denaturing polyacrylamide gel in 0.5% TBE at 4° C. Gels were exposed to X-ray films. Nuclear extract (3 μg) was incubated in 17 μl buffer containing 0.3 M NaCl, 0.4 M Tris pH 7.9, 100 mM EDTA, 0.4 M DTT, 13% glycerol, 1 μg of sonicated salmon sperm on ice. The samples were then incubated for 10 minutes at 30° C. and cooled on ice. ³²P-labelled probe was added, the reaction mixtures were incubated for another 10 minutes at 30° C. and then cooled on ice.
The inhibitory potential of the peptides on E2F function was analysed in band shift assays with recombinant E2F1 and DP1. […] The IC₅₀ concentrations for the 3 peptides were in the range of 50-100 μM. Inhibition to various extends was also observed using recombinant fragments of E2F2, E2F3, E2F4, E2F5, respectively. Approximately 100-fold lower IC50 values were found with a branched molecule consisting of 4 copies of SEQ ID NO:2 linked by MAP (multiple antigen peptide).

Sequence of E2F1/DP1 heterodimer (Q01094 64-301, chain 1 of 2): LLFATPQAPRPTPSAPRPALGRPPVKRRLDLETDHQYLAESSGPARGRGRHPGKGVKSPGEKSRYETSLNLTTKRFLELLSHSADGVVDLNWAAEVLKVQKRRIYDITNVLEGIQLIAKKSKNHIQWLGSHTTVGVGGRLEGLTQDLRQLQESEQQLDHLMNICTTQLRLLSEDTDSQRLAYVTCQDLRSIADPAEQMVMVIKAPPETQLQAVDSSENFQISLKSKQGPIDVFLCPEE
Sequence of E2F1/DP1 heterodimer (Q14186 85-249, chain 2 of 2): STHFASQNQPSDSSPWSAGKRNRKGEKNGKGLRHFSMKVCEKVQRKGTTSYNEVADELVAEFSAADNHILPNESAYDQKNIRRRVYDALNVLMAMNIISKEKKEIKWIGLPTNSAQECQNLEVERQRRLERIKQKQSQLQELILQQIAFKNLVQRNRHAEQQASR

B1: B-myb E2F probe (dsDNA)
DNA 1: CGACGCGCTTGGCGGGAGATAGAAAAGTGC
DNA 2: GCACTTTTCTATCTCCCGCCAAGCGCGTCG
**Q.** Does B1 bind?
**A.** binds
